In patent US20230279089A1 (GlaxoSmithKline, published 2023):
Numbering of substitutions follows the chain as printed. Several values for one entry are separate records, joined by “and”; a condition that tells them apart may be missing. Equal entries are not always repeated. Where two headings read alike, the source gives them in different places.

T1: Human BMP1 CD+CUB1 truncated antigen (human, UniProt P13497 121-434, limits assumed)
T1 construct: domain: CD+CUB1
T1 sequence (looked up): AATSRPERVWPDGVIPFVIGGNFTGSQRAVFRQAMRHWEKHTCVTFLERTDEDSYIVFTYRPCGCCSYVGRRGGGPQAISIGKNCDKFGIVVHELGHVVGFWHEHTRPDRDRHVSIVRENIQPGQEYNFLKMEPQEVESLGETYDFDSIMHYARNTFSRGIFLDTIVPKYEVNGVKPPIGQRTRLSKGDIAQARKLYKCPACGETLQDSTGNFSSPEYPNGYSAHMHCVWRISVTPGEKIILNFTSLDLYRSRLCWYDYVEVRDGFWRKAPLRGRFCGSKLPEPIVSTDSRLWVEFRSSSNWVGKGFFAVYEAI

T2: Mouse BMP1-3: 126-707 (mouse, UniProt P98063 126-707)
T2 sequence (looked up): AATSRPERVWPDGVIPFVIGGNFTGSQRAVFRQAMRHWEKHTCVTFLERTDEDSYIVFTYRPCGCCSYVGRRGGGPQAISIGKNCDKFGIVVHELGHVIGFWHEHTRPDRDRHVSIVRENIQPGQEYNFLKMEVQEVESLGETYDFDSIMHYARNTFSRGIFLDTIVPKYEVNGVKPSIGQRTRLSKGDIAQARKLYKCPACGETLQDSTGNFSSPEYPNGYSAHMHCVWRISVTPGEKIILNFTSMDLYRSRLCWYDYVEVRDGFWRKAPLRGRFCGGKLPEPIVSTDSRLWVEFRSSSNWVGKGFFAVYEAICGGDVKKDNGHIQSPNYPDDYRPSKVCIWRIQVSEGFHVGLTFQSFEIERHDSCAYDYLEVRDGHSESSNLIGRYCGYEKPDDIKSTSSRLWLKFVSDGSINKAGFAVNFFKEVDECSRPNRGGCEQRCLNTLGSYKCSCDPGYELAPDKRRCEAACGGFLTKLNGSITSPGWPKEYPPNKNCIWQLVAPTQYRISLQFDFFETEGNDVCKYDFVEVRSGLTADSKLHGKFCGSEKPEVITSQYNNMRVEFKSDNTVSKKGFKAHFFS

T3: Human BMP1-1 (human, UniProt P13497-2 121-730, limits assumed)
T3 sequence (looked up): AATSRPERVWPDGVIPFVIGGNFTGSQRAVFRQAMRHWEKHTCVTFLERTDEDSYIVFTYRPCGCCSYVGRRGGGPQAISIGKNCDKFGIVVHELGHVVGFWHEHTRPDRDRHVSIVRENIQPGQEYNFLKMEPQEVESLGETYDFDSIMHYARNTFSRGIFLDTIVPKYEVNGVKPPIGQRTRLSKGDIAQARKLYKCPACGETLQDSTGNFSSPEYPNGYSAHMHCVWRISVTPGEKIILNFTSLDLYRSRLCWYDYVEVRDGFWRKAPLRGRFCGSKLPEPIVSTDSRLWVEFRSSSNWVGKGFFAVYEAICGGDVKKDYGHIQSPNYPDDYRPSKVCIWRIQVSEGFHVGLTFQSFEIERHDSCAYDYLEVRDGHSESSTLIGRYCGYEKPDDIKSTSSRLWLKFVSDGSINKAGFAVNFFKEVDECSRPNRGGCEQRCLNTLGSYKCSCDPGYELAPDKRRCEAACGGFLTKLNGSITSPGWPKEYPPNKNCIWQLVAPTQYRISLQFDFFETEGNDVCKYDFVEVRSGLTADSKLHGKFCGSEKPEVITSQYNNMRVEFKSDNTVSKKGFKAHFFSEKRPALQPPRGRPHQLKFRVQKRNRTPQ

T4: Human TLL2 CD+CUB1 truncated antigen (human, UniProt Q9Y6L7 150-463, limits assumed)
T4 construct: domain: CD+CUB1
T4 sequence (looked up): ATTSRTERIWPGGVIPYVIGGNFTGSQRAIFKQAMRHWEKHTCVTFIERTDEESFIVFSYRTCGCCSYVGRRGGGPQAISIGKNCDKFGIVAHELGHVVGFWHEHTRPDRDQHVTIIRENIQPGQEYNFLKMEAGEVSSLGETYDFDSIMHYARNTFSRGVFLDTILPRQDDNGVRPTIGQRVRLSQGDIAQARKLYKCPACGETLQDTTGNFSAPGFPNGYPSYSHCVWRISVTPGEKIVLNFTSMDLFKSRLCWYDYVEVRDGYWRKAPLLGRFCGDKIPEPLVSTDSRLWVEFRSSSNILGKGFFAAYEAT

T5: Mouse BMP1 CD+CUB1 truncated antigen (mouse, UniProt P98063 126-439, limits assumed)
T5 construct: domain: CD+CUB1
T5 sequence (looked up): T1 sequence (looked up) with V99I, P134V, P178S, L247M, S279G

T6: Mouse TLL1 (mouse, UniProt Q62381 148-1013, limits assumed)
T6 sequence (looked up): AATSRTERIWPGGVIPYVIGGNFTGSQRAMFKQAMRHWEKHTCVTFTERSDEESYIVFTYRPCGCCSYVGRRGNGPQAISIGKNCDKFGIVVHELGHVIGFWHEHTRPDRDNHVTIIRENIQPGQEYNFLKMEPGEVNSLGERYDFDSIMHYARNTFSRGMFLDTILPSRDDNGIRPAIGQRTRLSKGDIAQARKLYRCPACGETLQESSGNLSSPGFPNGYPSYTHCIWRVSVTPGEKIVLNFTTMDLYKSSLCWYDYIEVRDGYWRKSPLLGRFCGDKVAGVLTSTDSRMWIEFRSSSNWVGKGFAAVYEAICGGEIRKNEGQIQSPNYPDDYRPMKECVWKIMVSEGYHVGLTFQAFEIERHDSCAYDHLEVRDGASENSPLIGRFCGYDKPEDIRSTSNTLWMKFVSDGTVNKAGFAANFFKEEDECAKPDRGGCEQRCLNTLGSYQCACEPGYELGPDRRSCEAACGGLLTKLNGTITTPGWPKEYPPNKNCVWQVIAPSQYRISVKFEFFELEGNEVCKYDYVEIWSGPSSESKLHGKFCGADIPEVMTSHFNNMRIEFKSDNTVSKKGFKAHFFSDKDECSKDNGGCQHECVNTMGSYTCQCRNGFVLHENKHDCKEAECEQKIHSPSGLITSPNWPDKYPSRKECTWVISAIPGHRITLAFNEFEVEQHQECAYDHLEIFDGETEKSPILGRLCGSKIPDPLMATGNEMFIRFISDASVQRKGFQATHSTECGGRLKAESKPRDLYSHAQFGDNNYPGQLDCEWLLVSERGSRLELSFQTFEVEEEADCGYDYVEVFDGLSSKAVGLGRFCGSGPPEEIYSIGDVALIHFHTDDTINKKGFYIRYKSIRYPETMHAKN

T7: Cyno TLL1 (cyno, UniProt A0A1D5QYV0 148-1013 (rhesus entry))
T7 sequence: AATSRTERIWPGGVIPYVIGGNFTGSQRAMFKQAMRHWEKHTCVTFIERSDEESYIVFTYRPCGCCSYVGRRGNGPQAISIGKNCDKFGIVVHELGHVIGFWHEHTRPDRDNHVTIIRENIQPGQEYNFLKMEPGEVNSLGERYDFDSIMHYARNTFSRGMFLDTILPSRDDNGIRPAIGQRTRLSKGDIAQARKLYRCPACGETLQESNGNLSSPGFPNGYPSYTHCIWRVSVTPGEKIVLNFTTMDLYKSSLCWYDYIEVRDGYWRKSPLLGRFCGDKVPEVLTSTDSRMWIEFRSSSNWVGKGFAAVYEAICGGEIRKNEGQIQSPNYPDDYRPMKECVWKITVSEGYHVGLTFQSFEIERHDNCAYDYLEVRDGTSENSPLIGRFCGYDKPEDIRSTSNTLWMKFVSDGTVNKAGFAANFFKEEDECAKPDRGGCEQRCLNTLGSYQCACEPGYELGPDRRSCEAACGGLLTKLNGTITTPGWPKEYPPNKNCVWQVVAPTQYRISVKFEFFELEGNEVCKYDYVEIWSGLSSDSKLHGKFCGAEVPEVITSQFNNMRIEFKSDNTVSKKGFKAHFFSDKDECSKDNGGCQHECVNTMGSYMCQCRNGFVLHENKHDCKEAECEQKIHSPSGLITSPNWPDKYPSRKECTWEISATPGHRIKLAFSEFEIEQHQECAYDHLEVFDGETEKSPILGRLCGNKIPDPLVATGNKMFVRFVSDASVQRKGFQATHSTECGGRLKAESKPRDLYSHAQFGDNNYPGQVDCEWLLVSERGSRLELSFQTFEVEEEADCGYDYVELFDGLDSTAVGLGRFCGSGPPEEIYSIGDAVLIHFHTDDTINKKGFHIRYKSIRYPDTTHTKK

B1: 13Y039-4B06-4334 human variable region on mouse IgG2a LAGA Fc, mouse cKappa (Compound A) (antibody)
heavy: QVQLVQSGAEVKKPGASVKVSCKASGYTFLGYYMSWVRQAPGQGLEWMGWINPLSGETNYAQKFQGRVTMTRDTSISTAYMELSRLRSDDTAVYYCARDTGELDGMNWYFDLWGRGTLVTVSSAKTTAPSVYPLAPVCGDTTGSSVTLGCLVKGYFPEPVTLTWNSGSLSSGVHTFPAVLQSDLYTLSSSVTVTSSTWPSQSITCNVAHPASSTKVDKKIEPRGPTIKPCPPCKCPAPNLAGAPSVFIFPPKIKDVLMISLSPIVTCVVVDVSEDDPDVQISWFVNNVEVHTAQTQTHREDYNSTLRVVSALPIQHQDWMSGKEFKCKVNNKDLPAPIERTISKPKGSVRAPQVYVLPPPEEEMTKKQVTLTCMVTDFMPEDIYVEWTNNGKTELNYKNTEPVLDSDGSYFMYSKLRVEKKNWVERNSYSCSVVHEGLHNHHTTKSFSRTPGK
light: EIVLTQSPATLSLSPGERATLSCRASQSVSSYLAWYQQKPGQAPRLLIYDASNRATGIPARFSGSGSGTDFTLTISSLEPEDFAVYYCQQSDSWPPTFGGGTKVEIKRADAAPTVSIFPPSSEQLTSGGASVVCFLNNFYPKDINVKWKIDGSERQNGVLNSWTDQDSKDSTYSMSSTLTLTKDEYERHNSYTCEATHKTSTSPIVKSFNRNEC
notes: Reverse chimera; the printed variable regions are those of 4B06-4334; also called 13Y039-4B06-4334 reverse chimera mouse IgG2a LAGA; 13Y039-4B06-4334, mIgG2a LAGA
B2: 13Y039-8F02-2949 (antibody, human IgG1, kappa, V domains shown)
VH: QVQLVQSGAEVKKPGSSVKVSCKASGGTFSEWAISWVRQAPGQGLEWMGAIIPKFGTAEYAQKFQGRVTITADESTSTAYMELSSLRSEDTAVYYCARGAKYYYAEDYMDVWGKGTTVTVSS
VL: DIQMTQSPSSVSASVGDRVTITCRASQGISSWLAWYQQKPGKAPKLLIYAASSLQSGVPSRFSGSGSGTDFTLTISSLQPEDFATYYCQQALSLPYTFGGGTKVEIKR
notes: Fully human IgG1 LAGA, kappa; HEK expressed

What was measured:
[1] = molecular target: T1, Human BMP1 CD+CUB1 truncated antigen; assay: SPR, captured mAb, HBS-EP
Mouse BMP1-3: 126-707 [2] = molecular target: T2, Mouse BMP1-3: 126-707; assay: cell-based or functional assay
Human BMP1-1 [3] = molecular target: T3, Human BMP1-1; assay: cell-based or functional assay
[4] = molecular target: T4, Human TLL2 CD+CUB1 truncated antigen; assay: SPR, captured mAb, HBS-EP
Procedure: (§1) Both antibodies 13Y039-4B06-4334 and 13Y039-3E07-2944 and the reverse chimeric antibodies were evaluated for binding to human TLL2 CD+CUB1 and mouse BMP1 CD+CUB1 truncated antigens by SPR on a BIACORE T200. Protein A/G was immobilised to a CM5 sensor chip via amine coupling and the antibodies were captured to the protein A/G surface. The antigens were passed over the captured antibody at various concentrations. The measured affinities to human TLL2 CD+CUB1 are shown in Table 2 and the measured affinities to mouse BMP1 CD+CUB1 are shown in Table 3.

[5] = molecular target: T5, Mouse BMP1 CD+CUB1 truncated antigen; assay: SPR, captured mAb, HBS-EP
Procedure: as §1

[6] = molecular target: T4, Human TLL2 CD+CUB1 truncated antigen; assay: SPR, captured mAb, HBS-EP; remark: listed apart in the source
Procedure: as §1

[7] = molecular target: T1, Human BMP1 CD+CUB1 truncated antigen; assay: SPR, captured mAb, enzyme dilution buffer
Mouse TLL1 = molecular target: T6, Mouse TLL1; assay: cell-based or functional assay
Human BMP1-1 [8] = molecular target: T3, Human BMP1-1; assay: cell-based or functional assay; remark: listed apart in the source
Cyno TLL1 = molecular target: T7, Cyno TLL1; assay: cell-based or functional assay
[9] = molecular target: T1, Human BMP1 CD+CUB1 truncated antigen; assay: SPR, mAb captured on protein A, HBS-EP
Procedure: The 16 lead panel antibodies expressed in HEK cells were evaluated for binding to a truncated version of human BMP containing the catalytic domain and truncated domain (Human BMP1 CD+CUB1 truncated antigen) by SPR using BIACORE T200. HBS-EP+ buffer was used and the experiment run at 25° C. Protein A was immobilised to a CM5 sensor chip via amine coupling. The lead panel antibodies were captured onto protein A surface. Human BMP1 CD+CUB1 was then passed over the captured antibodies at various concentrations.

Mouse BMP1-3: 126-707 [10] = molecular target: T2, Mouse BMP1-3: 126-707; assay: cell-based or functional assay; remark: listed apart in the source
Human BMP1-1 [11] = molecular target: T3, Human BMP1-1; assay: cell-based or functional assay; remark: listed apart in the source

Row | Binder | Kd [1] | pKi, app, FRET enzyme activity, Mouse BMP1 (Mouse BMP1-3: 126-707 [2]) | pKi, app, FRET enzyme activity, Human BMP1 (Human BMP1-1 [3]) | Kd [4] | Kd [5] | Kd [6] | Kd [7] | IC50, FRET enzyme activity, 800 pM biotinylated mTLL-1 (Mouse TLL1) | IC50, FRET enzyme activity, 62.5 pM huBMP1 (Human BMP1-1 [8]) | IC50, FRET enzyme activity, 750 pM biotinylated cynoTLL-1 (Cyno TLL1) | Kd [9] | IC50 (read off the curve) (Mouse BMP1-3: 126-707 [10]) | IC50 (read off the curve) (Human BMP1-1 [11])
1 | B1 | 2.33 nM | 11.4 | 12.3 | 3.54 nM | 0.82 nM and 1.98 nM | 3.55 nM | 0.04 nM | – | – | – | – | – | –
2 | B2 | – | – | – | – | – | – | – | 0.56 nM | 60 pM | 20 pM | 1.6 nM | ~0.06 nM | ~0.5 nM
